Laboratory results from publication PMC13436963.

B1: Drosophila Notch LNR domain fused to split firefly luciferase fragments (LNR–NLuc and LNR–CLuc) [Drosophila melanogaster] / Drosophila Notch LNR domain fused to split firefly luciferase fragments (LNR–NLuc and LNR–CLuc) … (parent)
chain 1: GSGNDRYAADLEQQRAMCDKRGCTEKQGNGICDSDCNTYACNFDGNDCSLGINPWANCTANECWNKFKNGKCNEECNNAACHYDGHDCERKLKSCDSLFDAYCQKHYGDGFCDYGCNNAECSWDGLDCENKTQSPV
chain 2: B1 chain 1

Variants of: B1
Experiment: split-luciferase complementation assay
Details: with Drosophila Notch LNR domain fused to split firefly luciferase fragments (LNR–NLuc and LNR–CLuc) [Drosophila melanogaster], S2 cells, n=5, parent: 1, read off a plot

Row | Variant | ratio to parent (bar labelled 'F1563A + WT' (N-Luc / C-Luc)) | ratio to parent (bar labelled 'WT + F1563A' (N-Luc / C-Luc)) | ratio to parent (bar labelled 'H1570A + WT' (N-Luc / C-Luc)) | ratio to parent (bar labelled 'WT + H1570A' (N-Luc / C-Luc))
1 | chain 1 GSGNDRYAADLEQQRAMCDKRGCTEKQGNGICDSDCNTYACNFDGNDCSLGINPWANCTANECWNKFKNGKCNEECNNAACHYDGHDCERKLKSCDSLADAYCQKHYGDGFCDYGCNNAECSWDGLDCENKTQSPV | 0.97 | 1.1 |  | 
2 | chain 1 GSGNDRYAADLEQQRAMCDKRGCTEKQGNGICDSDCNTYACNFDGNDCSLGINPWANCTANECWNKFKNGKCNEECNNAACHYDGHDCERKLKSCDSLFDAYCQKAYGDGFCDYGCNNAECSWDGLDCENKTQSPV |  |  | 1 | 0.94
